What was measured:
CCM1-K2 = test: ITC; GST-tagged fragments from PTB domains and HIS-tagged NPXY motifs, purified; Table 5 heads CCM1-K8 and CCM1-K2 as 'Ligand'; conditions not stated (as in ref. 20)
CCM1-K8 [1] = test: as above
CCM1-K8 [2] = test: BLI; GST-tagged fragments from PTB domains and HIS-tagged NPXY motifs, purified; Table 5 heads CCM1-K8 as 'Ligand'; who was immobilised and the conditions are not stated (as in ref. 20)

Kd (CCM1-K2): 6.45 µM | Kd (CCM1-K8 [1]): 1.99 µM | Kd (CCM1-K8 [2]): 4.06 µM
Substance: CCM2-EX6 (from UniProt Q9BSQ5 1-444) (domain or fragment)

Source: article PMC6825194
